For one molecule, Kd results are on record in article PMC1240114.

This series has as its target tFKBP*3R (UniProt P62942 2-108, F37V;M50R;E55R;T86R). The series is described as follows: filter binding.

Sequence of tFKBP*3R (P62942 2-108 F37V/M50R/E55R/T86R): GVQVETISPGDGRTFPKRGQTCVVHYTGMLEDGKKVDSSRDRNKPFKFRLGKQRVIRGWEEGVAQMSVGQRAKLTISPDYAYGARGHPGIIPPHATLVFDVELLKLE

B1: s23 U74C (structured_RNA)
RNA: GGGCAUUGGAUCGCAUUGUCAUUUCAUUGUGGCGGUGCAGUCAAAUGUGAUGCUUCGUUCAGUGACGGGAGGGCUGUGAGUGGUCUGAACGUAAGC
B1 came in with a Kd of 10.8 ± 3.8 nM.

A word on the Kd: it is a measure of binding affinity in units of concentration.
